The nanobody polyreactivity screen of Harvey et al. (2022)

assay: yeast display, Sf9 membrane polyspecificity reagent, FACS + sequencing; frameworks hold sequencing errors
Procedure, shortened: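 In a synthetic yeast display library (Saccharomyces cerevisiae BJ5465), nanobody expression was induced with galactose for 36–48 hours. FACS gates were set low and high (top ~1%) using anti-HA fluorescence for expression and streptavidin fluorescence for binding of the Sf9 membrane reagent. Each polyreactivity label is drawn from the gate of origin.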

| Sequence | polyreactivity (PSR sort gate) |
| --- | --- |
| QVQLVESGGGLVQAGGSLRLSCAASGLTFGHYAMGWYRPAPGKERELVAAITSGGRTYYADSVKGRFTISRDNAKYTVYLQMNSLKPEDTAVYYCATRGPRYRYYYWGQGTQVTVSS | high polyreactivity |
| QVQLVESGGGLVQAGGSLRLSCAASGSTFYLYAMGWYRQAPGKERELVAAISWSGGDKYYADSVKGRFTISRDNAKNTVYLQMNSLKPEDTAVYYCAAEITDSYPGSPRRRDYWGQGTQVTVSS | low polyreactivity |
| QVQLVESGGGLVQAGGSLRLSCAASGSILRLYAMGWYRQAPGNERDLVAAITYRGGRTDYADSVKGRFTISRDTAKNTVYLQLNSLKPEDTAVFYCAAGYLPSPRYSTSYLYYYWGQGTQVTVSS | high polyreactivity |
| QFQLVESGRGLVQAGGSLRLSCAASGRIFSYNTLGWYRQAPGKERELVAAITNNGGSTYYADSVKGRFTISRDNAKNTVYLQMNSLKPEDTAVYYCNRDRYPFYYAYNYWGQGTQVTVSS | low polyreactivity |
| QVQLEESGGCLVQAGGSLRLSCAASGFTFRSYAMGWYRQAPGKERELVAAISSGGSTYYADSVKGRFTISRDNAKITVYLKMNSLKPEDTAVYYCAARRYYGYGHWGQGTHVTVSS | high polyreactivity |
| QVQLVESGGGLVQAGGSLRLSCAASGSTFIIYAMGWYRQAPGKERELVAAISWSGGSTYYADSVKGRFTISRDNAKNTVYLQMNSLKPEDTAVYYCAVVYRTRWSDYDYWGQGTQVTVSS | high polyreactivity |
| QVQLVESGGGLVQAGGSLRLSCAASGSTYYRYTMGSYRQAPGKERELLAAITSGGGTDYADSVKGRFTISRDNAKNTVYLQMNSLKPEDTAVYYCAAEGSWYSYPDYDYWGQGTQVTVSS | low polyreactivity |
| QVQLVESGGGLVQAGGSLRLSCAASGFIFRFNAMGWYRQAPGKERELVAGITWSGGSTYYADSVKGRFTISRDNAKNTVYLQMNSLKPEDTAVYYCDADNPYLGRKFDYWGQGTQVTVSS | high polyreactivity |
| QVQLVESGGGLVQAGGSLRLSCAASGFTFERNAMGWYIQAPGKERELVATINGSSDSTYYADSVKGRFTISRDNAKNTVYLQMNSLKPEDTAVYYCNADSITEGNSRYSHFDYWGQGTQVTVSS | low polyreactivity |
| QVQLVESGGGLVQAGGSLRLSCAASGLTFGTNAMGWYRQAPGKERELVAAISTSSGSTYYADSVKGRFTISRDNAKNTVYLQMNSLKPEDTAVYYCAAVTVTKMSYYRYYYWGQGTQVTVSS | low polyreactivity |
| QVQLVESGGGLVQAGGSLRLSCAASGRIFKFNAMGWYRQAPGKEMELVAATWSGGRTYYSDSVKGRFTISRDNAKYTVYLQMNCLKPEDTAVYYCNAADSSWYVLYGSYYRSGLDYWGQGTQVTVSS | low polyreactivity |
| QVQLVESGGGLVQAGGSLRLSCAASGSTFYAYTMGWYRKAPGKERELVAGISRRGGTTYYADSVKGRFTISRDNAKNTVYLQMNSLKPEDTAVYYCAADKTKPQASEGYYAYYYWGQGTQVTVSS | low polyreactivity |
| QVQLVESGGGLVQAGGSLRLSCAASGRTFWANAMGWYRPAPGKERELVAAITIGGRTYYADSVKGRFTISRDNAKNTVYLQMNSLKPEDTAVYYCNAGTRRPFPAESGYWGQVTQVTVSS | low polyreactivity |
| QDQLVESGGGLVQAGGSLRLSCAASGSTFSYNAMGWYRQAPGKERELVAAIRWSGGSTYADSVKGRFTISRDNAKNTVYLQMNSLNPEDTAVYYCAARNFGYPELRYYYWGQGTQVTVSS | high polyreactivity |
| QVQLVESGGGLVQAGGSLRLSCAASGRTFSYYAMGWYRQAPGKERELVAYITSSGGSTYYADSVKGRFTISRDNAKNTVYLQMNSLKPEDTAVYYCATRGGSRARGMDYWGQGTQVTVSS | high polyreactivity |
| QVQLVESGGGLVQAGGSLRLSCAASGSTFYNNAMGWYRPAPGKERELVAAISSGGGTYYADSVKGRFTISRDNAKNTVYLQMNSLKPEDTAVYYCAAYFANTTHWGRIKRYDYWGQGTQVTVSS | low polyreactivity |
| QVQLVESGGGLVQAGGSLRLSCAASGRTFVRNAMGWYRQAPGKERELVAAITRSGGSTYYADSVKGRFTISRDNAKNTVYLQMNSLKPEDTAVYYCSARPPYRVGIVPLGRREYYWGQGTQVTVSS | high polyreactivity |
| QVQLVESGGGLVQAGGSLRLSCAASGNTFKGYAMGWYRQAPGKERELVAAISWSGSSTYYADSVKGRFTISRDYAKNTVYLQMNILKPEDTAVYYCNRKYLGRYASVYGYGYWGQGTQVTVSS | high polyreactivity |
| QVQLVESGGGLVQAGGSLRLSCAASGRIYRYAMGWYRQAPGKERELVAAISGGGGRTYYADSVKGRFTISRDNAKNTFYLQLNSLKPEVTAVYDCAVDPYFYYYGDYYFDYWGQGTQVTVSS | high polyreactivity |
| QVQLVQSGGGLFQAGGSLRLSCAASGRTFWSNAMGWYRQAPGKERELVADITFSGGRTYYADSVKGRFTISRDNAKTSVYLQMNRLKPEDTAVYYCSSSATPSGVGMDYWGQGTQVTVSS | low polyreactivity |
| QVQLVESGGGLVQAGGSLRLSCAASGRIFGHYVMGWYRQAPGKERELVAAISYSGGSTYYADSVKGRFTISRDNAKITVYLQMISLKPEDTAVYYCAARETQDSPYGAYYYWGQGTQVTVSS | high polyreactivity |
| QVQLVESGGGLVQAGGSLRLSCAASGIIFGPYVMGWYRQAPGKERELVATISRTGDTYYADSVKGRFTISRDNAKNTVYLQMNSLKPEDTAVYYCAVEWSAHKYYYWGQGTQVTVSS | low polyreactivity |

| Sequence | polyreactivity (PSR sort gate) |
| --- | --- |
| QVQLVESGGGLVQAGGSLRLSCAASGFIFRYNAMGWYRQAPGKERELVAAISSSGGSTYYADSVKGRFTISRDNAKNTVYVQMNSLKPEDTAVDYCNAYNYGYIGYGYNYWGQGTQVTVSS | high polyreactivity |
| QVQLVESGGGLVPAGGSLRLSCAASGRIFWSNAMGWYRQAPGKERELVAAITWRGGSTYADSVKGRFTISRDNAKNTVYLQMNSLKPEDTAVFYCAASPSGWRYDYWGQGTQVTVSS | high polyreactivity |
| QVQLVESGGGLVQAGGSLRLSCAASGFSFYRYAMGWYRQAPAKERELVARTYYADSVKGRFTISRDNAKNTVYLQMNSLKPEDTAVYYCNKDLELEYRYEYWGQGTQVTVSS | low polyreactivity |
| QVQLVESGGGLVQAGGSLRLSCAASGFTFSYYAMGWYRQAPGKERELVATITSGGSTYYADSVKGRFTISRDNAKNTVYLQMNSLKPEDTAVYYCNADWYWRVYWGQGTQVTVSS | high polyreactivity |
| QVQLVESGGGLVQAGGSLRLSCAASGIIIVGNSMGWYRQAPGKQRELVASINSGGSTYYADSVKGRFTISRDNAKNTVYLQMNSLKPEDTAVYDCAVEEDRYYYDDYDYCGQGTQVTVSS | low polyreactivity |
| QVQLVESGGGLVQAGGSLRLSCAASGFIFSYYAMGWYRQAPGKERELVAGITRSGGSTYYADSVKGRFTISRDNAKNTVYLQMNSLKPEDTAVYYCAAGYFYHFSRYTNRYGYWGQGTQVTVSS | high polyreactivity |
| QVQLVESGGGLVQAGGSLRISCAASGSIFQFNAMGWSRQAPGKERELVASISASGGSTYYADSVKGRFTISRDNAKNTVYLQMNSLKPEDTAVYYCAADFIRSWFIWRGSFDYWGLGTQVTVSS | low polyreactivity |
| QVQLVESGGGLVQAGGSLRLSCAASGSIFSYYAMGWYRQAPGKERELVAAISRSGASTSYADSVKGRFTISRDNAKNTVYLQMNSLKPEDTAVYYCAKRIYWRGSWGRYYYWGQGTQVTVSS | high polyreactivity |
| QVQLVESGGGLVQAGGILRLSCAASGRTFAPYTMGWYRQAPGKERELVAVITRRDGRTYYADSVKGRFTISRDNAKNTFYLQMKSLKPEDNAVYYCCFLPADWYRPVRYLRTDSDYWGQGTKVTVSS | low polyreactivity |
| QVQLVESGGGLVQAGGSLRLSCAASGYIFLRNAMGWYRQAPGKERELVAAIRRTGGSTYADSVKGRFTISRDNAKNTVYLQMNSLKPEDTAVYYCNAGYLLYYDYHLFYWVQGTQVTVSS | low polyreactivity |
| QVQLVESGGGLVQAGGSLRLSCAASGFTFYYYAMGWYRQAPGKERELVAAISYSGGSTYYADSVKGRFTISRDNAKNTVYLQMNSLKPEDTAVYYCAALYTGESGYWGQGTQVTVSS | high polyreactivity |
| QVQIVESGGRLVQAGGSLRLSCAASGSIFVWYAMGWYRQAPGKERELVSRITSGGRTNYADSVKGRFTISRDNAKNTVYLQMNSLKPEDTAVYYCAAGRVSWSPYYYWGQATQVTVSS | high polyreactivity |
| QVQLVESGGGLVLAGGSLSLTCAASGRTCWYYTMGWYRHAPGKARELVAAISSGGRTNYADSVKGRFTISRDNATNTVFLQMNSLKPEDTAVYYCATSRYYKYVERDYWGQGTQVTVSS | high polyreactivity |
| QVQLVESGGGLVQAGGSLRLSCPASGSTFGYYAMGWYRQAPGKERELVAAITYSVGGTYYADSVKGRFTISRDNAKNTVYLQMNSLKPEDTAVYSCNVDYYVPPAGVTRTGDDDYWGQGTQVTVSS | low polyreactivity |
| QVQLVESGGGLVQAGGSLRLSCAASGRTFSRNAMGWYRQAPGKERELVATITSDGSTNYADSVKGRFTISRDNAKITVYLQMNSLKPEDTAVYYCAAGEQSSIIGAHDYWGQGTQVTVSS | low polyreactivity |
| QVQLVESGRGLVQAGGSLRLSCAASGRIFRYYAMGWYRQAPGKERELVATITDGGSTSYADSVKGRFTISRDNAKNTVYLQMNSLKPEDTAVYYCARDPLPSYWKVWSRPTFDYWGQGTQVTVSS | low polyreactivity |
| QVQLVESGGGLVQAGGSLRLSCAASGRIFRSNAMGWYRQAPGKERELVAAITWSGGSTYYADSVKGRFTISRDNAKNTVYLQMNSLKPEDTAVYYCAADGYTAYLPYYWFDYWGQGTQVTVSS | high polyreactivity |
| QVQLVESCGGLVQAGCSLRLSCAASGSIVAWYTMGWYRQAPGKERELVAGITASGGSTYYADSVKGRFTISRDNAKNTVYLQMNILKPEDTAVYYCAATNPFRYRRGGYWGQGTQVTVSS | high polyreactivity |
| QVQLVESGGGLVQAGGSLSLSCAASGSIFRYYAMGWYRQAPGKERELVAAITSGGRTNYADSVKGRFTISRDNAKNTVYLQMNSLKREDTAVYYCNKCYNAVWRYRGDYWGQGTQVTVSS | high polyreactivity |
| QVQLVESGGGLVQAGGSLRLSCAASGLIFSRNAMGRYRQAPGKERELVAAITTGGSTYYADSVKGRFTISRDNAKNTVYLQMNSLKPEDTAVYYCAAAPGYIYEYWGQGTQVTVSS | low polyreactivity |
| QVQLVESVGGLVQAGGSLRLSCAASGRILKRNAMGWYRQAPGKERELVAAISWSTGTTYYADSVKGRFTISRDNAKNTVYLQMKSLKPEDTAVYYSAKQIVSGRRVDRNDYWGQGTQVSVSS | low polyreactivity |
